Data from patent US20250215412A1 (NOVOZYMES A S, published 2025).
Residue numbers refer to the chain shown, from its start. Numbers in names are those of the source. One block for each molecule: values may come before it.

Biological target: T1, Chryseobacterium sp-62563 deamidase polypeptide (second polypeptide, deamidase domain), wildtype (Chryseobacterium sp-62563)
T1 sequence: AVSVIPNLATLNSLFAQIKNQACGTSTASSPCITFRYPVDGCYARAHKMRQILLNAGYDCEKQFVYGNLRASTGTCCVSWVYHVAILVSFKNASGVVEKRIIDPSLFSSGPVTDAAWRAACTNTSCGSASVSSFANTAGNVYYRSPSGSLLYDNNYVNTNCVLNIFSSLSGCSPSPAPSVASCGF
Assay: cell-based or functional assay

Molecule: Chryseobacterium sp-62563 propeptide K96*
NanoDSF thermal unfolding temperature: 79.5 ° C.
Relative activity of maturated deamidase (% initial rate): > 100

Molecule: Chryseobacterium sp-62563 propeptide D90DA
NanoDSF thermal unfolding temperature: 80.3 ° C.
Relative activity of maturated deamidase (% initial rate): > 100

Molecule: Chryseobacterium sp-62563 propeptide S97ST
NanoDSF thermal unfolding temperature: 81.6 ° C.
Relative activity of maturated deamidase (% initial rate): 99

Molecule: Chryseobacterium sp-62563 propeptide S97SS
NanoDSF thermal unfolding temperature: 81.1 ° C.
Relative activity of maturated deamidase (% initial rate): > 100

Molecule: Chryseobacterium sp-62563 propeptide S97SF
Relative activity of maturated deamidase (% initial rate): 50

Molecule: Chryseobacterium sp-62563 propeptide S97SI
Relative activity of maturated deamidase (% initial rate): 30

Molecule: Chryseobacterium sp-62563 propeptide T100TA
Relative activity of maturated deamidase (% initial rate): 41

Molecule: Chryseobacterium sp-62563 propeptide F95FA
NanoDSF thermal unfolding temperature: 79.8 ° C.
Relative activity of maturated deamidase (% initial rate): > 100

Molecule: Chryseobacterium sp-62563 propeptide F95*
NanoDSF thermal unfolding temperature: 77.1 ° C.
Relative activity of maturated deamidase (% initial rate): > 100

Molecule: Chryseobacterium sp-62563 propeptide I92*
NanoDSF thermal unfolding temperature: 77.5 ° C.

B2: Chryseobacterium sp-62563 propeptide F38C (protein)
chain: NQDPNLVAKESNETAMKDFGKTVPVGIEKEDGKFKISCMVTAQPYEIKDSKENAAYISMIKTAVENETPIHVFLKANTNEIAKVDKATDDDIRYFKSVFTKEVKEENRK
Leakage activity: 26%
NanoDSF thermal unfolding temperature: 76.2 ° C.
Relative activity of maturated deamidase (% initial rate): 83

B4: Chryseobacterium sp-62563 propeptide T41E (protein)
chain: B2 chain with C38F, T41E
Leakage activity: 0%
Relative activity of maturated deamidase (% initial rate): 67

B7: Chryseobacterium sp-62563 propeptide F38A (protein)
chain: B2 chain with C38A
Leakage activity: 2%
Relative activity of maturated deamidase (% initial rate): 72

B8: Chryseobacterium sp-62563 propeptide K33E (protein)
chain: B2 chain with K33E, C38F
Leakage activity: 0%
Relative activity of maturated deamidase (% initial rate): 66

Continued, values first:

NanoDSF thermal unfolding temperature: 82 ° C.
Relative activity of maturated deamidase (% initial rate): 68
Molecule: Chryseobacterium sp-62563 propeptide S97SY

NanoDSF thermal unfolding temperature: 78.7 ° C.
Molecule: Chryseobacterium sp-62563 propeptide V98*

NanoDSF thermal unfolding temperature: 81.4 ° C.
Relative activity of maturated deamidase (% initial rate): > 100
Molecule: Chryseobacterium sp-62563 propeptide S97SK

NanoDSF thermal unfolding temperature: 81.7 ° C.
Relative activity of maturated deamidase (% initial rate): 98
Molecule: Chryseobacterium sp-62563 propeptide T100*

NanoDSF thermal unfolding temperature: 69.2 ° C.
Molecule: Chryseobacterium sp-62563 propeptide P44PA

Leakage activity: 1%
Relative activity of maturated deamidase (% initial rate): 76
B1: Chryseobacterium sp-62563 propeptide V25H (protein)
chain: B2 chain with V25H, C38F

Leakage activity: 0%
Relative activity of maturated deamidase (% initial rate): > 100
B3: Chryseobacterium sp-62563 propeptide K35E (protein)
chain: B2 chain with K35E, C38F

Leakage activity: 0%
Relative activity of maturated deamidase (% initial rate): 39
B5: Chryseobacterium sp-62563 propeptide V40P (protein)
chain: B2 chain with C38F, V40P

Leakage activity: 2%
Relative activity of maturated deamidase (% initial rate): 93
B6: Chryseobacterium sp-62563 propeptide F38T (protein)
chain: B2 chain with C38T

Leakage activity: 0%
B9: Chryseobacterium sp-62563 propeptide T41D (protein)
chain: B2 chain with C38F, T41D
